{"source": "paper PMC3325491", "about": "(Structure(London, England:1993), 2012)", "molecules": {"B1": {"name": "HPV11 MBP-E6N fusion construct (E6N residues 1-81) (domain or fragment)", "chain": "MESKDASTSATSIDQLCKTFNLSLHTLQIQCVFCRNALTTAEIYAYAYKNLKVVWRDNFPFAACACCLELQGKINQYRHFN"}, "B2": {"name": "HPV18 E6N domain (residues 1-82) (domain or fragment)", "chain": "MARFEDPTRRPYKLPDLCTELNTSLQDIEITCVYCKTVLELTEVFEFAFKDLFVVYRDSIPHAACHKCIDFYSRIRELRHYS"}}, "key": {"[1]": {"molecular_target": "HPV16 E6N domain (residues 1-80), wild type (HPV16)", "assay": "NMR titration"}, "SEC": {"molecular_target": "the molecule itself", "assay": "SEC"}, "AUC": {"molecular_target": "the molecule itself", "assay": "AUC"}}, "data": [{"molecule": "HPV16 E6N domain (residues 1-80), wild type (domain or fragment)", "values": [{"measurement": "Kd", "setting": "[1]", "result": 290, "unit": "µM"}]}, {"molecule": "B1", "values": [{"measurement": "stoichiometry N", "setting": "SEC", "result": 2}]}, {"molecule": "B2", "values": [{"measurement": "stoichiometry N", "setting": "AUC", "result": 2}]}]}
